The test has as its target soluble HRP-conjugated spike-RBD construct (HRP-RBD) of the SARS-CoV-2 neutralizing antibody ELISA a (SARS-CoV-2) (UniProt P0DTC2).

The substance “positive control reagent of the SARS-CoV-2 neutralizing antibody ELISA assay kit (Creative Diagnostics)” registered a percent inhibition of 82.5%.

(Values after US20250242012A1.)
